Laboratory results from patent publication US8889621B2, “Inhibiting binding of FGF23 to the binary FGFR-Klotho complex for the treatment of hypophosphatemia” (New York University, priority 2009, dated 2014).
Entries after “also recorded” stand apart in the source; their conditions may differ. Blank lines part the entries; values can stand above or below the molecule they belong to. Peptide text beside a SMILES is read from it.

Assays:
[1] = test system: binary FGFR-Klotho complexes (FGFR1c, FGFR3c, or FGFR4); assay: Co-immunoprecipitation based competition assay, HEK293-Klotho lysates; assay type: binding
From the text: Co-immunoprecipitation may also be used to determine that an agent specifically binds the binary FGFR-Klotho complex. One aspect of the present invention utilizes co-immunoprecipitation studies. Subconfluent cultures of a HEK293 cell line ectopically expressing the FLAG-tagged membrane-spanning form of murine Klotho were transfected with expression vectors for V5-tagged FGFR1c, FGFR3c, or FGFR4. Two days later, the cells were lysed, and FGFR-Klotho complexes were isolated from cell lysate using anti-V5 agarose beads. The beads were then incubated with either FGF23^180-251 or FGF23^28-251 alone, or with mixtures of FGF23^28-251 with either increasing FGF23^180-251 or increasing FGF23^180-205. Bead-bound proteins were resolved on SDS-polyacrylamide gels, transferred to nitrocellulose membranes, and labeled using antibodies to Klotho, FGF23, and V5 epitope tag.
In parallel, subconfluent HEK293-Klotho cells (Kurosu et al., “Regulation of Fibroblast Growth Factor-23 Signaling by Klotho,” J Biol Chem 281(10):6120-6123 (2006), which is hereby incorporated by reference in its entirety) were transfected with expression vectors for V5-tagged FGFR1c, FGFR3c, or FGFR4 (Kurosu et al., “Regulation of Fibroblast Growth Factor-23 Signaling by Klotho,” J Biol Chem 281(10):6120-6123 (2006), which is hereby incorporated by reference in its entirety) and binding of FGF23 proteins/peptides to Klotho-FGFR complexes isolated from cell lysate was analyzed. Two days later, the cells were lysed (Kurosu et al, “Suppression of Aging in Mice by the Hormone Klotho,” Science 309(5742):1829-1833 (2005), which is hereby incorporated by reference in its entirety), and FGFR-Klotho complexes were isolated from cell lysate using anti-V5 agarose beads (Sigma-Aldrich) (Kurosu et al., “Regulation of Fibroblast Growth Factor-23 Signaling by Klotho,” J Biol Chem 281(10):6120-6123 (2006), which is hereby incorporated by reference in its entirety). The beads were then incubated with either FGF23^180-251 (1 nM) or FGF23^28-251 (1 nM) alone, or with mixtures of FGF23^28-251 (1 nM) with either increasing FGF23^180-251 (2 to 76 nM) or increasing FGF23^180-205 (0.1 to 10 μM). Bead-bound proteins were resolved on SDS-polyacrylamide gels, transferred to nitrocellulose membranes, and labeled using antibodies to Klotho (KM2119, (Kato et al., “Establishment of the Anti-Klotho Monoclonal Antibodies and Detection of Klotho Protein in Kidneys,” Biochemical Biophysical Res Communications 267(2):597-602 (2000), which is hereby incorporated by reference in its entirety)), FGF23 (R&D systems), and V5 epitope tag (Invitrogen).

[2] = test system: NaPi-2C; assay: NaPi-2C protein abundance in apical brush border membrane of rat kidney; assay type: in vivo; conditions: IV 0.1 μg kg body weight^−1, 3 h post injection, vs vehicle
Experimental: (§1) Immunoblot analysis of NaPi-2A and NaPi-2C protein abundance in renal cortex tissue and isolated brush border membrane vesicles (BBMV), and NaPi-2A immunostaining of renal tissue were performed as described (Bacic et al., “Activation of Dopamine Dl-like Receptors Induces Acute Internalization of the Renal Na^+/phosphate Cotransporter NaPi-IIa in Mouse Kidney and OK cells,” Am J Physiol Renal Physiol 288(4):F740-747 (2005), Loffing et al., “Renal Na/H Exchanger NHE-3 and Na—PO4 Cotransporter NaPi-2 Protein Expression in Glucocorticoid Excess and Deficient States,” J Am Soc Nephrol 9(9):1560-1567 (1998), Moe et al., “Dietary NaCl Modulates Na(+)-H+ Antiporter Activity in Renal Cortical Apical Membrane Vesicles,” Am J Physiol 260(1 Pt 2):F130-137 (1991), which are hereby incorporated by reference in their entirety).
(§2) For immunoblot, rat kidney cortices were dissected and homogenized, and BBMV were isolated (Loffing et al., “Renal Na/H Exchanger NHE-3 and Na—PO4 Cotransporter NaPi-2 Protein Expression in Glucocorticoid Excess and Deficient States,” J Am Soc Nephrol 9(9):1560-1567 (1998), Moe et al., “Dietary NaCl Modulates Na(+)-H+ Antiporter Activity in Renal Cortical Apical Membrane Vesicles. Am J Physiol 260(1 Pt 2):F130-137 (1991), which are hereby incorporated by reference in their entirety). […]

[3] = test system: NaPi-2A; assay: NaPi-2A protein abundance in apical brush border membrane of rat kidney; assay type: in vivo; conditions: IV 0.1 μg kg body weight^−1, 3 h post injection, vs vehicle
Experimental: as §1, §2

[4] = co-immunoprecipitation competition

Molecule: CSCC[C@H](NC(=O)[C@H](CCCNC(=N)N)NC(=O)[C@H](C)NC(=O)[C@H](CCCNC(=N)N)NC(=O)[C@@H]1CCCN1C(=O)[C@H](CCCCN)NC(=O)[C@H](CC(C)C)NC(=O)[C@@H](NC(=O)[C@H](CC(N)=O)NC(=O)[C@H](CC(C)C)NC(=O)[C@@H]1CCCN1C(=O)[C@H](CC(=O)O)NC(=O)[C@H](CCCNC(=N)N)NC(=O)[C@H](CCC(=O)O)NC(=O)[C@H](CO)NC(=O)[C@H](CC(=O)O)NC(=O)[C@H](CC(=O)O)NC(=O)[C@H](CCC(=O)O)NC(=O)[C@H](C)NC(=O)[C@@H](N)CO)C(C)C)C(=O)N[C@H](C(=O)N1CCC[C@H]1C(=O)N[C@@H](C)C(=O)N1CCC[C@H]1C(=O)N[C@@H](C)C(=O)N[C@@H](CO)C(=O)O)[C@@H](C)O [FGF23^180-205] (H-SAEDDSERDPLNVLKPRARMTPAPAS-OH; N-terminus and C-terminus assumed)
inhibition of binding (co-precipitation) of FGF23^28-251 with binary FGFR-Klotho complexes [1, 4]: able to inhibit binding; also recorded: inhibited co-precipitation
reduced potency compared to the FGF23^180-251 peptide [1, 4]: over 100 fold

B1: FGF23^28-251: human FGF23 (A28 to I251), bioactive full-length ligand expressed in E. coli (protein, listed as Homo sapiens)
chain: ASPLLGSSWGGLIHLYTATARNSYHLQIHKNGHVDGAPHQTIYSALMIRSEDAGFVVITGVMSRRYLCMDFRGNIFGSHYFDPENCRFQHQTLENGYDVYHSPQYHFLVSLGRAKRAFLPGMNPPPYSQFLSRRNEIPLIHFNTPIPRRHTRSAEDDSERDPLNVLKPRARMTPAPASCSQELPSAEDNSPMASDPLGVVRGGRVNTHAGGTGPEGCRPFAKFI
NaPi-2C protein expression in the apical brush border membrane [2]: diminished
NaPi-2A protein expression in the apical brush border membrane [3]: decrease; also recorded: diminished

molar excess that completely blocked binding of FGF23^28-251 to the FGFR-Klotho complex ([1]; FGF23^28-251 1 nM): 76 fold molar excess
inhibition of binding (co-precipitation) of FGF23^28-251 with binary FGFR-Klotho complexes [1, 4]: can inhibit binding
B2: FGF23^180-251: 72-amino acid C-terminal tail of human FGF23 (S180 to I251), expressed in E. coli (protein, listed as Homo sapiens)
chain: SAEDDSERDPLNVLKPRARMTPAPASCSQELPSAEDNSPMASDPLGVVRGGRVNTHAGGTGPEGCRPFAKFI
NaPi-2C protein expression in the apical brush border membrane [2]: increased
NaPi-2A protein expression in the apical brush border membrane [3]: increased
